± gives the uncertainty stated by the source.
Test: protein stability index of a GFP-peptide fusion (yeast GPS) (PSI 1-4); higher = more stable; sorted into four equal gates, so the index is relative within each strain
Method in brief: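 The protein stability index combines read frequencies across sorting gates, each weighted by its gate number and then summed. To obtain those frequencies, a pooled yeast library of GFP fusions to tiled 17-residue yeast protein peptides, on a plasmid also expressing Cherry, was grown to mid-log phase in leucine-free medium. The cells were sorted into four equal gates by GFP/Cherry ratio before plasmid amplification by PCR and Illumina sequencing.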

Sequence	protein stability index (doa10∆)	protein stability index (pdr5∆)	protein stability index (san1∆)	protein stability index (ubr1∆)
TDAGVLALKLELLDFLT [YJL039C/NUP192]	2.84 ± 0.061	2.98 ± 0.078	2.96 ± 0.052	3.02 ± 0.046
KERIIRAFLIEEQKIVK [RPL34A]	3.06 ± 0.082	2.26 ± 0.087	2.04 ± 0.13	2.49 ± 0.066
ELEFIQSLANIQYVTYL [SOH1]	2.48 ± 0.068	2.54 ± 0.053	2.71 ± 0.052	2.72 ± 0.041
SAGLFGSKPAGGTSLFG [YGL172W/NUP49]	2.6 ± 0.081	2.9 ± 0.1	2.27 ± 0.098	2.66 ± 0.047
NESEKDQWLEEYKKHFP [UBP6]	3.31 ± 0.16	3.6 ± 0.19	–	3.32 ± 0.11
RARVTKDLVEIKKEEGK [RPN5]	–	3.42 ± 0.18	3.33 ± 0.17	3.59 ± 0.077
ATKEGVVLGVEKRATSP [PUP2]	2.72 ± 0.14	3.14 ± 0.087	3.15 ± 0.083	3.19 ± 0.053
SAEDQLYAITFRKGLGN [QCR2]	3.06 ± 0.12	3.14 ± 0.16	2.96 ± 0.2	3.03 ± 0.17
IKKFAKLHMGTEDVRLA [RPL31B]	3.21 ± 0.21	3.21 ± 0.22	2.71 ± 0.15	2.73 ± 0.14
FEKKLSIIKAKLPLLNE [YML103C/NUP188]	2.34 ± 0.095	1.98 ± 0.13	1.85 ± 0.23	1.69 ± 0.068
ANCQRQLTEFWTELCQR [NNF1]	3.09 ± 0.081	2.87 ± 0.08	3 ± 0.075	2.82 ± 0.099
ESNIKMTLEDNNVTSNP [SSN2]	2.91 ± 0.092	3.25 ± 0.11	2.68 ± 0.086	2.95 ± 0.055
NGDNLYGNDEEVLFYED [RPN4]	3.07 ± 0.1	3.22 ± 0.12	3.1 ± 0.096	2.95 ± 0.074
SINVHSNNITSGLNRAI [RET1]	3.19 ± 0.1	3.24 ± 0.07	3.24 ± 0.052	3.17 ± 0.052
PASNILRRTTQRVFDET [YDL116W/NUP84]	2.66 ± 0.13	2.66 ± 0.061	2.77 ± 0.13	2.62 ± 0.1
LTKYKEMERIVKNLTKY [SRP68]	2.96 ± 0.069	2.85 ± 0.073	2.82 ± 0.04	2.78 ± 0.041
QDISSSTRVEFEKLYSD [FAS2]	–	3.05 ± 0.24	3.27 ± 0.14	–
SAYVKAFYQKGNKLVEL [SMC1]	1.45 ± 0.074	1.99 ± 0.051	2.12 ± 0.097	1.58 ± 0.052
SNELIEHFSHFGHIMED [YDL088C/ASM4]	3.33 ± 0.12	3.09 ± 0.065	2.94 ± 0.053	2.99 ± 0.045
KEYQCSAVIIDEFKDIT [YIL149C/MLP2]	2.46 ± 0.065	2.75 ± 0.065	2.35 ± 0.055	2.88 ± 0.044
SGTPTLKKNIEPKKDKE [YOR098C/NUP1]	3.39 ± 0.19	3.29 ± 0.11	2.71 ± 0.25	3.05 ± 0.084
LALETVLIKMVKMLRDN [SIR3]	2.26 ± 0.11	2.06 ± 0.074	2.08 ± 0.079	1.77 ± 0.092
KENELLFGEKSILGKFC [YCS4]	1.55 ± 0.04	1.72 ± 0.051	1.59 ± 0.11	1.73 ± 0.039
LTVAMYINSDSVNPAML [RPO31]	2.4 ± 0.11	2.47 ± 0.11	2.69 ± 0.14	2.68 ± 0.082
AAGALFVSSGFDTSIKL [RPN14]	2.41 ± 0.052	2.52 ± 0.045	2.18 ± 0.064	2.49 ± 0.035
MKYIQTEQQIEVPEGVT [RPL9A]	2.54 ± 0.089	2.75 ± 0.082	2.83 ± 0.11	2.77 ± 0.053

Sequence	protein stability index (doa10∆)	protein stability index (pdr5∆)	protein stability index (san1∆)	protein stability index (ubr1∆)
LRLTDVTNSLSNEEKEK [GAL11]	3.14 ± 0.12	3.17 ± 0.12	2.52 ± 0.15	3.3 ± 0.12
IGAVYSGMGPDYRVLVD [PRE8]	3.67 ± 0.28	–	2.92 ± 0.3	3.38 ± 0.12
EIKKLLATNSLVEEFML [DIS3]	2.32 ± 0.055	1.9 ± 0.052	2.54 ± 0.057	2.3 ± 0.048
INELFKKYTQNNPLLLI [RPN8]	1.85 ± 0.071	1.48 ± 0.05	1.37 ± 0.14	1.11 ± 0.049
KRKPAKSSSNRSCVSNS [RPN4]	2.89 ± 0.059	3.01 ± 0.077	3.08 ± 0.065	2.98 ± 0.048
LNEIKEHKIVVLGNSRG [RPN14]	3.57 ± 0.19	–	3.18 ± 0.15	–
GLFGANSNSNSGSLFGS [YGL172W/NUP49]	1.31 ± 0.13	1.7 ± 0.14	1.05 ± 0.25	1.41 ± 0.21
SNNELVRTNTLTKAAIV [RPS8A]	2.842 ± 0.022	3.046 ± 0.022	2.724 ± 0.022	3.021 ± 0.018
ERAAQKLRLDQLVIQQG [ISW2]	2.49 ± 0.11	2.52 ± 0.094	2.74 ± 0.082	2.42 ± 0.069
VNEPTKNEEAEIEVDEM [RPN1]	3.25 ± 0.17	3.22 ± 0.23	3.08 ± 0.14	3.45 ± 0.16
IVFHNEFSEHTFVERLP [DIS3]	2.43 ± 0.05	2.28 ± 0.063	2.64 ± 0.058	2.68 ± 0.053
ILDITDEELVSHFVSAV [RPP0]	2.99 ± 0.12	2.88 ± 0.14	3.01 ± 0.13	3.05 ± 0.071
VKVHMDSETSDPNEVEI [DIS3]	3.29 ± 0.089	3.5 ± 0.086	3.5 ± 0.077	3.52 ± 0.088
LLGIFDDIFIPQNMLFE [RPC25]	2.33 ± 0.15	2.7 ± 0.17	2.52 ± 0.095	2.69 ± 0.1
SELAGDEELEAEQIDVF [PRP8]	3.08 ± 0.2	3.19 ± 0.2	3.07 ± 0.16	2.75 ± 0.18
MPPKQQLSKAAKAAAAL [RPS25A]	1.73 ± 0.048	1.87 ± 0.05	1.76 ± 0.062	1.83 ± 0.042
ILARNDEEMAVLTRMDE [SNF2]	3.04 ± 0.071	2.87 ± 0.079	2.37 ± 0.084	3.15 ± 0.047
IKELEHLHDAVFVNTGL [SWP82]	2.94 ± 0.067	2.9 ± 0.058	3.06 ± 0.059	2.91 ± 0.05
NVGLPILKSLKNRSNRK [YOR098C/NUP1]	3.07 ± 0.075	3.1 ± 0.078	2.88 ± 0.064	3.11 ± 0.049
IPSQRGTSTTHGSISPQ [SIR3]	2.39 ± 0.033	2.58 ± 0.035	2.37 ± 0.036	2.54 ± 0.026
LDVSSDRRKARKAYFTA [RPL26A]	1.79 ± 0.081	1.26 ± 0.082	2.42 ± 0.1	2.12 ± 0.07
HHSWSQSDLEIITQYVF [ARP9]	2.29 ± 0.051	2.82 ± 0.056	2.73 ± 0.056	3.08 ± 0.044
RLASEPGIISITSLQDS [YMR129W/POM152]	2.94 ± 0.1	2.34 ± 0.077	2.96 ± 0.083	1.82 ± 0.051
NNKNKRVTGAGGQQRRM [RPC53]	–	2.78 ± 0.2	–	3.33 ± 0.073
YKHIDASGSINRKVLQA [RPS19A]	2.06 ± 0.072	3.27 ± 0.12	2.49 ± 0.073	2.53 ± 0.083
NFGNNGAGGLNPFTSAT [YOR098C/NUP1]	2.89 ± 0.055	3.21 ± 0.09	3.15 ± 0.045	3.04 ± 0.052

Sequence	protein stability index (doa10∆)	protein stability index (pdr5∆)	protein stability index (san1∆)	protein stability index (ubr1∆)
AISKKNKSLKYVIHGIE [LIN1]	2.02 ± 0.058	1.84 ± 0.053	2.11 ± 0.084	1.84 ± 0.04
QGTGKKTASLGNSKDDL [ISW2]	3.02 ± 0.12	2.9 ± 0.18	3.41 ± 0.057	3.42 ± 0.14
LEMSTEDFVKLAPARVR [RPS15]	2.83 ± 0.13	3.05 ± 0.1	3.07 ± 0.065	2.78 ± 0.07
MYTRLCICSGMLFEMDG [SIN4]	1.45 ± 0.038	1.41 ± 0.038	1.48 ± 0.073	1.42 ± 0.029
ETALEFLEKEKQLTLLR [SMC4]	3.46 ± 0.1	2.65 ± 0.074	2.66 ± 0.12	2.92 ± 0.058
GFQDRSLPHFPKNSKTP [RPO31]	2.7 ± 0.14	1.96 ± 0.1	1.56 ± 0.11	–
AKFFLNVSDEQLSNWQK [ITC1]	3.21 ± 0.073	3.21 ± 0.053	3.18 ± 0.063	3.17 ± 0.072
DESLIRELYKYVRKHDP [PRP28]	3.4 ± 0.14	3.48 ± 0.16	2.83 ± 0.17	3.09 ± 0.12
HLVWMKGTNDEGTSISV [YCS4]	1.84 ± 0.11	2.23 ± 0.086	1.9 ± 0.18	2.2 ± 0.17
ETVKLPRVSNQSNEDTF [RRI2]	3.06 ± 0.13	3.22 ± 0.14	2.94 ± 0.19	3.24 ± 0.1
QKYWESMRIQILRRQAI [GAL11]	1.34 ± 0.091	2.25 ± 0.087	1.65 ± 0.16	2.1 ± 0.058
LPSAVDGENDKKEATKP [YLR335W/NUP2]	3.36 ± 0.082	3.29 ± 0.067	3.05 ± 0.056	3.37 ± 0.059
NKTDAQAPTTGFSFGSQ [YJL041W/NSP1]	2.91 ± 0.064	2.98 ± 0.06	3.28 ± 0.077	3.07 ± 0.069
QKLFVQVSNFAPQVYII [GAL11]	2.62 ± 0.077	2.45 ± 0.061	2.86 ± 0.065	2.32 ± 0.049
RVKDIHLRKLLDGELDF [RET1]	2.87 ± 0.06	2.93 ± 0.062	3.03 ± 0.066	3.02 ± 0.041
NIKIDAKPALFERFINA [MCD1]	1.76 ± 0.053	2.8 ± 0.095	2.3 ± 0.1	2.03 ± 0.066
STFTKHLIKCFFKITLQ [ITC1]	1.43 ± 0.039	1.28 ± 0.03	1.51 ± 0.058	1.6 ± 0.03
KRFQVLYPCYFDINRSH [SEC65]	2.11 ± 0.062	2.11 ± 0.055	1.88 ± 0.071	2.06 ± 0.039
FGHLMHYGNEHIRRMVP [RPN1]	1.71 ± 0.042	1.82 ± 0.039	1.6 ± 0.063	1.96 ± 0.034
SYYGIVCLMQISTRERD [RRP6]	1.96 ± 0.12	1.41 ± 0.081	1.21 ± 0.16	1.39 ± 0.09
ETQLKVVTRSKEAFEEE [SMC1]	–	3.25 ± 0.15	–	3.39 ± 0.085
FNFFEPIKEAKIKHGSV [YMR129W/POM152]	2.7 ± 0.054	2.89 ± 0.056	2.54 ± 0.065	2.83 ± 0.046
DEVDAIGGRRFSEGTSA [RPT4]	2.72 ± 0.086	2.67 ± 0.083	2.48 ± 0.1	2.35 ± 0.09
SDPMLQRTATLCLEKLM [YCS4]	1.47 ± 0.21	–	–	1.14 ± 0.17
FLFHAISGREGLVDTAV [RPO31]	–	2.89 ± 0.28	–	2.55 ± 0.13
IDLDNDEDDDEDVTDQE [DLS1]	3.21 ± 0.12	2.89 ± 0.16	2.86 ± 0.083	3.17 ± 0.15
